Test results reported in article PMC5389901.

Molecular target: INSM1 ZF4-5 (Homo sapiens, UniProt Q01101 424-497)
Experiment: ITC

Sequence of INSM1 ZF4-5 (Q01101 424-497): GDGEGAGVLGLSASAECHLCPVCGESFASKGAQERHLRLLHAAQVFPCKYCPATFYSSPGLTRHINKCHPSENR

B1: INSM1 consensus dsDNA (dsDNA)
DNA 1: TGTCAGGGGGCA
DNA 2: TGCCCCCTGACA
  Kd: 21.8 µM
